The record followed here is US20240132589A1 (ONCORESPONSE, published 2024).

Holding throughout (test): flow cytometry, transiently transfected HEK293-6E cells
Experiment [1] addresses T1, Human LILRB3 on transiently transfected HEK293-6E cells (human, UniProt O75022 24-631).
T1 construct: whole, on cells; also called hLILRB3

In experiment [2] the target is T2, Human LILRB5 on transiently transfected HEK293-6E cells (human, UniProt O75023 24-590).
T2 construct: whole, on cells; also called hLILRB5

The target of experiment [3] is T3, Human LILRA4 on transiently transfected HEK293-6E cells (human, UniProt P59901 24-499).
T3 construct: whole, on cells; also called hLILRA4

Experiment [4] has as its target T4, Human LILRA6 on transiently transfected HEK293-6E cells (human, UniProt Q6PI73 24-481).
T4 construct: whole, on cells; also called hLILRA6

For experiment [5], the target named is T5, Human LILRA1 on transiently transfected HEK293-6E cells (human, UniProt O75019 17-489).
T5 construct: whole, on cells; also called hLILRA1

The target in experiment [6] is T6, Human LILRB4 on transiently transfected HEK293-6E cells (human, UniProt Q8NHJ6 22-448).
T6 construct: whole, on cells; also called hLILRB4

Experiment [7] deals with T7, Human LILRB1 on transiently transfected HEK293-6E cells (human, UniProt Q8NHL6 24-650).
T7 construct: whole, on cells; also called hLILRB1

Experiment [8] addresses T8, Human LILRA2 on transiently transfected HEK293-6E cells (human, UniProt Q8N149 24-483).
T8 construct: whole, on cells; also called hLILRA2

The target in experiment [9] is T9, Human LILRA5 on transiently transfected HEK293-6E cells (human, UniProt A6NI73 42-299).
T9 construct: whole, on cells; also called hLILRA5

Experiment [10] addresses T1, Human LILRB3 on transiently transfected …. The method, then:
(§1) To determine that the anti-LILRB2 antibodies specifically bind to LILRB2 and not other LILRB and LILRA family members, a cross-reactivity assay was performed. Cross-reactivity of the LILRB2 antibodies to other LILRB proteins was assessed by antibody binding to transiently transfected HEK293-6E cells, measured by flow cytometry. Binding was evaluated to HEK293-6E cells transiently transfected with human LILRB-1, -2, -3, -4, and 5 plasmids (Origene, Nos. RC219949, RC217935, RC211228, RC220932, RC206516) or to cells transiently transfected with human LILRA-1, -2, -4, -5, and -6 plasmids (Origene, Nos. RC210808, RC205626, RC220452, RC212310 RC212965). […] Murine primary antibodies to LILRA and LILRB targets and corresponding isotype controls were used to confirm specific binding of all targets tested (R&D Systems) while an AF647 F(ab′)₂ fragment goat anti-mouse antibody (Jackson ImmunoResearch, No. 115-606-062) was used for the detection of bound positive control antibodies. No binding of B2A-IgG4 or B2A-IgG1 to LILRB-1, -3, -4, or -5 was observed, and no binding of either antibody to LILRA-1, -2, -4, -5, or -6 was observed, confirming specificity of these antibodies.
(§2) Select humanized variant antibodies were tested for their ability to bind other LILRB or LILRA family members, using the method and commercially available positive control antibodies of Example 5.
The source holds these as a separate data set.

Experiment [11] has as its target T2, Human LILRB5 on transiently transfected …. The method, then: as §1, §2
The source holds these as a separate data set.

In experiment [12] the target is T3, Human LILRA4 on transiently transfected …. How it is done: as §1, §2
The source holds these as a separate data set.

Experiment [13] addresses T4, Human LILRA6 on transiently transfected …. The method, then: as §1, §2
The source holds these as a separate data set.

For experiment [14], the target named is T5, Human LILRA1 on transiently transfected …. How it is done:
as §1, §2
The source holds these as a separate data set.

Experiment [15] has as its target T10, Human LILRB2 on transiently transfected HEK293-6E cells (human, UniProt Q8N423 22-597).
T10 construct: whole, on cells; also called hLILRB2
The method, then:
as §1, §2

Experiment [16] has as its target T6, Human LILRB4 on transiently transfected …. How it is done: as §1, §2
The source holds these as a separate data set.

Experiment [17] has as its target T7, Human LILRB1 on transiently transfected …. How it is done:
as §1, §2
This is another data set of the same source.

For experiment [18], the target named is T8, Human LILRA2 on transiently transfected …. How it is done:
as §1, §2
This is another data set of the same source.

In experiment [19] the target is T9, Human LILRA5 on transiently transfected …. The method, then: as §1, §2
The source holds these as a separate data set.

In experiment [20] the target is T10, Human LILRB2 on transiently transfected …. How it is done: as §1
This is another data set of the same source.

T8 sequence (Q8N149 24-483): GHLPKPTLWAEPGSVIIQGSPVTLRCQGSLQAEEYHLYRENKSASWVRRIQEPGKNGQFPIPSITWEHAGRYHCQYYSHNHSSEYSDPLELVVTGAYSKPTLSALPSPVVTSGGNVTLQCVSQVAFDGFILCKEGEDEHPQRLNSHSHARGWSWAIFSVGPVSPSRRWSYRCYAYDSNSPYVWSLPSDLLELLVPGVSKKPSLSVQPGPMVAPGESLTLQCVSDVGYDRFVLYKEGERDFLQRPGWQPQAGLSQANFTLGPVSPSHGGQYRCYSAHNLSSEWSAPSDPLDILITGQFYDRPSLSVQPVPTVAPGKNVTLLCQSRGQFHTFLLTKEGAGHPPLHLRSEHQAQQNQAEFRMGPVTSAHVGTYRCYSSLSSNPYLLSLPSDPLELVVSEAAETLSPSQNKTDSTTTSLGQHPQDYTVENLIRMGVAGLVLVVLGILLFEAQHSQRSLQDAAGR
T4 sequence (Q6PI73 24-481): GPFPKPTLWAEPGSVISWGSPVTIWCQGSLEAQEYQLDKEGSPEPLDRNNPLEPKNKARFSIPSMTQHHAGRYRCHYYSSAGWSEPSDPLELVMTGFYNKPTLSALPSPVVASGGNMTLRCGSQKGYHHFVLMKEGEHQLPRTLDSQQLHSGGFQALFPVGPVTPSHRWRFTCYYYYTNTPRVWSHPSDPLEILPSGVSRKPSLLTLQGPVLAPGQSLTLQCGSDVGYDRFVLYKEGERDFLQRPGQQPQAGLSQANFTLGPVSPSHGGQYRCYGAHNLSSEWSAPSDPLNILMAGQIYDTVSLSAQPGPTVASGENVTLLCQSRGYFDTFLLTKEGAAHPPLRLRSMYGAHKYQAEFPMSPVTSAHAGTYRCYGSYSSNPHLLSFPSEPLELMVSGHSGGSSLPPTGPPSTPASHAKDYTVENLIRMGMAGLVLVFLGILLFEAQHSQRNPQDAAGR
T9 sequence (A6NI73 42-299): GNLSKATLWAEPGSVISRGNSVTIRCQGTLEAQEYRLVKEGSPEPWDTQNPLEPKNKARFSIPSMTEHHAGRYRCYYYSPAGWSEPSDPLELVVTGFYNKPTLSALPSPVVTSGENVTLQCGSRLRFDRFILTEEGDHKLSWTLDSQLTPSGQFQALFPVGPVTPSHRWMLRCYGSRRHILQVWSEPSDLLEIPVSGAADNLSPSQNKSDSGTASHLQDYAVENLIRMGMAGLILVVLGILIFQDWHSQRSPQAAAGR
T3 sequence (P59901 24-499): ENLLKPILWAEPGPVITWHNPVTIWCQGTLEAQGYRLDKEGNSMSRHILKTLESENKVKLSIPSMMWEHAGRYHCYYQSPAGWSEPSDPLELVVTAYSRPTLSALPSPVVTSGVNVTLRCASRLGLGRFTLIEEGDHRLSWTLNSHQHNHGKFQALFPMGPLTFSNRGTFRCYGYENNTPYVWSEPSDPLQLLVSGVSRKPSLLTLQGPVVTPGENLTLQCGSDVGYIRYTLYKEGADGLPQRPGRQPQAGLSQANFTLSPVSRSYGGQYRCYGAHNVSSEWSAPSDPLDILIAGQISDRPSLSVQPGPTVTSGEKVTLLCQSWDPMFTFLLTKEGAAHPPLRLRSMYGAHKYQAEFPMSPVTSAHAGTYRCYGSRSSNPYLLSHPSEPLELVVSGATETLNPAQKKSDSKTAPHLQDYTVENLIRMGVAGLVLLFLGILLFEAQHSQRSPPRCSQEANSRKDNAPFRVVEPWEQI
T7 sequence (Q8NHL6 24-650): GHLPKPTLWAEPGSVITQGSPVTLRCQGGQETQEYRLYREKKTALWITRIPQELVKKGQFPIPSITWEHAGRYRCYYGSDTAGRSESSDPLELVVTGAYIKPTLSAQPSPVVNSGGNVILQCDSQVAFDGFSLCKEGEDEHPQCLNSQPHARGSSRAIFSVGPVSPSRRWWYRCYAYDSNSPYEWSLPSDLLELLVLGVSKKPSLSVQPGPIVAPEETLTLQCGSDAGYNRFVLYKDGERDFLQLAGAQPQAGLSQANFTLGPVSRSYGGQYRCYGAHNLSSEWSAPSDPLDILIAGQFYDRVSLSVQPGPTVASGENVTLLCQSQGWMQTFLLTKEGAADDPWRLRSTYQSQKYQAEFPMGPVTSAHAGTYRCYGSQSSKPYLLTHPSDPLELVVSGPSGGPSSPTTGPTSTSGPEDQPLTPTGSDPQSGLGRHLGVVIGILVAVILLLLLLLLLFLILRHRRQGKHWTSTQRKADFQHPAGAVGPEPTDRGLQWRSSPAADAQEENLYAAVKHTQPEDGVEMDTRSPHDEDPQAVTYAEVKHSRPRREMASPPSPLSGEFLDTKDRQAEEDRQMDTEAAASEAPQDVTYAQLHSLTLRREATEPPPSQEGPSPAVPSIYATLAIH
T10 sequence (Q8N423 22-597): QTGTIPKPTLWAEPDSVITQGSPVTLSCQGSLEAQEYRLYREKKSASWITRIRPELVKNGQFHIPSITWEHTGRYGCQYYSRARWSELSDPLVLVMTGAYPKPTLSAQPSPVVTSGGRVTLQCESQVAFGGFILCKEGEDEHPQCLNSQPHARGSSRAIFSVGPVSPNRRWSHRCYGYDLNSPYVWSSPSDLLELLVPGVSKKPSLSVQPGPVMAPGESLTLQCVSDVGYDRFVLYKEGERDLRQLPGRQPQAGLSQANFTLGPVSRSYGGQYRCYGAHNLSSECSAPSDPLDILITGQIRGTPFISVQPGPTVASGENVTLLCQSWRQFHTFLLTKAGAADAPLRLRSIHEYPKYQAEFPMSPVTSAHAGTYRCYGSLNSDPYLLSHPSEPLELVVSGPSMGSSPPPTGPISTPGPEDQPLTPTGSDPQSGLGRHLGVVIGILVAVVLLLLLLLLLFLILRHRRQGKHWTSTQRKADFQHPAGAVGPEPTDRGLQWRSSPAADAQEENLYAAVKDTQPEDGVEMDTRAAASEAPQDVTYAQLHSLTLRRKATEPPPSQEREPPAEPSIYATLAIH
T2 sequence (O75023 24-590): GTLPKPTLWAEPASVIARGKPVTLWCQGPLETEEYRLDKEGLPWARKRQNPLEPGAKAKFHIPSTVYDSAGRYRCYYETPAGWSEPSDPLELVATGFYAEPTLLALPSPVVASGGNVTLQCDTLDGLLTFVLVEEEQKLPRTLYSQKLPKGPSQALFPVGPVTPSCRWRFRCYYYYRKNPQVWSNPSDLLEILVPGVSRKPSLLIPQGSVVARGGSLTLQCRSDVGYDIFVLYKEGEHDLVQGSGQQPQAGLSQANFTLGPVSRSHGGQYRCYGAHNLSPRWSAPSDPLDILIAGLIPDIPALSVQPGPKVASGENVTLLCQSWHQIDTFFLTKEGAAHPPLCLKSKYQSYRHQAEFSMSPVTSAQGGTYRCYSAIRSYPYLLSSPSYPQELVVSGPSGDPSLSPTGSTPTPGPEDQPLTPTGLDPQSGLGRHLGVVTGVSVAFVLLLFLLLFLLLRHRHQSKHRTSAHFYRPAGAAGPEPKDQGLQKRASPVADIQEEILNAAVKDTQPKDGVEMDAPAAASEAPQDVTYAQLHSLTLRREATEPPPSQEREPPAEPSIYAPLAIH
T5 sequence (O75019 17-489): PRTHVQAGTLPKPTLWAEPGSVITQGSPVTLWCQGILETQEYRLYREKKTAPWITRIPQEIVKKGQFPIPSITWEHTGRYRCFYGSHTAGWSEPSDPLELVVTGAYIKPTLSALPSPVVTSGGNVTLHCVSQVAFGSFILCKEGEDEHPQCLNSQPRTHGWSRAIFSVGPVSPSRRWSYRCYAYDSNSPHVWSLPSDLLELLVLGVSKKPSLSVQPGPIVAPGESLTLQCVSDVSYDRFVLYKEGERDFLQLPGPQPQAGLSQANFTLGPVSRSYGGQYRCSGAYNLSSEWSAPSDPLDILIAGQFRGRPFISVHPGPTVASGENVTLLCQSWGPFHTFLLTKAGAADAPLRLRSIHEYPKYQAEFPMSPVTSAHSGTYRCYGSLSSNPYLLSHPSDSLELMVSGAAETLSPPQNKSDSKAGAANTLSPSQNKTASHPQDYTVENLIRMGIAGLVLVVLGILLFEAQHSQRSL

B1: B2H1-35 (antibody, V domains shown)
VH: QVQLVESGGRVVQPGTPLRLSCAASGFSLSTYAMSWVRQAPGKGLEWVAWIYNDGSTYYAAWAKGRFTISRDTSKNTLYLQTNSLKPDDTAVYYCAREGDYIGYFNIWGQGTLVTVSS
VL: DVVMTQTPSSVSAALGGTVTIKCQASQSIGSNLAWYQLKPGQRPKLLIYAAATLASGGSSRFKGSGSGTDFTLTISSLEPADAATYYCQSYVSGSSDVAFGGGTEVVVK
notes: Humanized variant, human IgG1 / kappa
Regarding B1, the binding result in experiment [1], in experiment [2], in experiment [3], in [4], in experiment [5] and in experiment [6] was “no binding” in each case. Besides, the binding result in experiment [7], in [8] and in experiment [9] was “no binding” in each case. Besides, the “Bmax (MFI)” value in experiment [10] amounted to 146 MFI; in experiment [11] it was 145 MFI; in [13] it was 202 MFI; in experiment [14], 766 MFI; in experiment [15], 10300 MFI; in [16], 38.5 MFI. Moreover, the “Bmax (MFI)” value in [17] was 41.3 MFI; in experiment [18] it was 33.6 MFI; in experiment [19], 122 MFI. Also, in [12], the “BMAX [gMFI]” value amounted to 103 gMFI.

B2: B2Comp1 (antibody, human IgG4 S228P, lambda, V domains shown)
VH: EVQLQQWGAGLLKPSETLSLTCAVYGGSFSGYYWSWIRQPPGKGLEWIGEINHAGSTNYNPSLKSRVTISVDTSKNQFSLKLSSVTAADTAVYYCARLPTRWVTTRYFDLWGRGTLVTVSS
VL: ESVLTQPPSVSGAPGQRVTISCTGSSSNIGAGYDVHWYQQLPGTAPKLLIYGDSNRPSGVPDRFSVSKSGASASLAITGLQAEDEADYYCQSFDNSLSAYVFGGGTQLTVLG
notes: Benchmark antibody, IgG4 heavy chain and lambda light chain; biotin-conjugated when used as the labelled antibody in binning; also called MK-4830 (as designated in WO 2021/138079 A1); αLILRB2B2Comp1
Regarding B2, in experiment [20], the MFI was 9630 MFI.

B3: B2H1-52 (antibody, V domains shown)
VH: EVQLLESGGGLVQPGTSLTLSCAASGFSLSTYAMSWVRQAPGKGLEWIGWIYNDGSTYYAAWAKGRFTISKDTSKTTLYLQITSLRAEDTATYFCAREGDYIGYFNIWGQGTLVTVSS
VL: DVVMTQSPSSVSASLGDRVTITCQASQSIGSNLAWYQQKPGQAPKLLIYAAATLASGVPSRFKGSGSGTDFTLTITSLQPADFATYYCQSYVSGSSDVAFGGGTKVEIK
notes: as for B1
Turning to B3, the binding result in experiment [1], in experiment [2], in [3], in experiment [4], in experiment [5] and in experiment [6] was “no binding” each time. In addition, the binding result in experiment [7], in [8] and in experiment [9] was “no binding” throughout. For the same molecule, the “Bmax (MFI)” value was found to be 159 MFI in experiment [10]; 153 MFI in experiment [11]; 219 MFI in [13]; 855 MFI in experiment [14]; 10300 MFI in experiment [15]; 40.5 MFI in experiment [16]. Besides, the “Bmax (MFI)” value in experiment [17] was determined as 42.3 MFI; in [18] it was 36.1 MFI; in experiment [19] it was 123 MFI. Besides, the “BMAX [gMFI]” value in experiment [12] turned out to be 106 gMFI.

B4: B2H1-11 (antibody, V domains shown)
VH: QVQLEESGGRVVQPGRSLRLSCAASGFSLSTYAMSWVRQAPGKGLEWIGWIYNDGSTYYAAWAKGRFTISKDTSKTTVFLQMNSLKPDDTATYFCAREGDYIGYFNIWGQGTLVTVSS
VL: DIQMTQSPSSLSASVGDRVTITCQASQSIGSNLAWYQLKPGQRPKLLIYAAATLASGVPSRFKGSGSGTDFTLTISSLQSEDAATYYCQSYVSGSSDVAFGGGTEVVVK
notes: as for B1
On to B4, for which the binding result in experiment [1], in [2], in experiment [3], in experiment [4], in [5] and in experiment [6] was “no binding” in each case. Further, the binding result in [7], in [8] and in experiment [9] was “no binding” in each case. The “Bmax (MFI)” value in experiment [10] was 142 MFI; in experiment [11] it was 147 MFI; in [13], 210 MFI; in experiment [14], 776 MFI; in experiment [15], 11000 MFI; in experiment [16] it was 38 MFI. For the same molecule, the “Bmax (MFI)” value in experiment [17] turned out to be 39.8 MFI; in [18], 36.1 MFI; in experiment [19], 124 MFI. Moreover, the “BMAX [gMFI]” value in [12] was found to be 108 gMFI.
